# Measured values as given in IntAct's records for PubMed 31515488.
# B1: UDP-galactose translocator (Homo sapiens), P78381 (parent)
# chain: MAAVGAGGSTAAPGPGAVSAGALEPGTASAAHRRLKYISLAVLVVQNASLILSIRYARTLPGDRFFATTAVVMAEVLKGLTCLLLLFAQKRGNVKHLVLFLHEAVLVQYVDTLKLAVPSLIYTLQNNLQYVAISNLPAATFQVTYQLKILTTALFSVLMLNRSLSRLQWASLLLLFTGVAIVQAQQAGGGGPRPLDQNPGAGLAAVVASCLSSGFAGVYFEKILKGSSGSVWLRNLQLGLFGTALGLVGLWWAEGTAVATRGFFFGYTPAVWGVVLNQAFGGLLVAVVVKYADNILKGFATSLSIVLSTVASIRLFGFHVDPLFALGAGLVIGAVYLYSLPRGAAKAIASASASASGPCVHQQPPGQPPPPQLSSHRGDLITEPFLPKLLTKVKGS
# B2: Hypoxia-inducible factor 1-alpha inhibitor (Homo sapiens), Q9NWT6 (parent)
# chain: MAATAAEAVASGSGEPREEAGALGPAWDESQLRSYSFPTRPIPRLSQSDPRAEELIENEEPVVLTDTNLVYPALKWDLEYLQENIGNGDFSVYSASTHKFLYYDEKKMANFQNFKPRSNREEMKFHEFVEKLQDIQQRGGEERLYLQQTLNDTVGRKIVMDFLGFNWNWINKQQGKRGWGQLTSNLLLIGMEGNVTPAHYDEQQNFFAQIKGYKRCILFPPDQFECLYPYPVHHPCDRQSQVDFDNPDYERFPNFQNVVGYETVVGPGDVLYIPMYWWHHIESLLNGGITITVNFWYKGAPTPKRIEYPLKAHQKVAIMRNIEKMLGEALGNPQEVGPLLNTMIKGRYN
# partner: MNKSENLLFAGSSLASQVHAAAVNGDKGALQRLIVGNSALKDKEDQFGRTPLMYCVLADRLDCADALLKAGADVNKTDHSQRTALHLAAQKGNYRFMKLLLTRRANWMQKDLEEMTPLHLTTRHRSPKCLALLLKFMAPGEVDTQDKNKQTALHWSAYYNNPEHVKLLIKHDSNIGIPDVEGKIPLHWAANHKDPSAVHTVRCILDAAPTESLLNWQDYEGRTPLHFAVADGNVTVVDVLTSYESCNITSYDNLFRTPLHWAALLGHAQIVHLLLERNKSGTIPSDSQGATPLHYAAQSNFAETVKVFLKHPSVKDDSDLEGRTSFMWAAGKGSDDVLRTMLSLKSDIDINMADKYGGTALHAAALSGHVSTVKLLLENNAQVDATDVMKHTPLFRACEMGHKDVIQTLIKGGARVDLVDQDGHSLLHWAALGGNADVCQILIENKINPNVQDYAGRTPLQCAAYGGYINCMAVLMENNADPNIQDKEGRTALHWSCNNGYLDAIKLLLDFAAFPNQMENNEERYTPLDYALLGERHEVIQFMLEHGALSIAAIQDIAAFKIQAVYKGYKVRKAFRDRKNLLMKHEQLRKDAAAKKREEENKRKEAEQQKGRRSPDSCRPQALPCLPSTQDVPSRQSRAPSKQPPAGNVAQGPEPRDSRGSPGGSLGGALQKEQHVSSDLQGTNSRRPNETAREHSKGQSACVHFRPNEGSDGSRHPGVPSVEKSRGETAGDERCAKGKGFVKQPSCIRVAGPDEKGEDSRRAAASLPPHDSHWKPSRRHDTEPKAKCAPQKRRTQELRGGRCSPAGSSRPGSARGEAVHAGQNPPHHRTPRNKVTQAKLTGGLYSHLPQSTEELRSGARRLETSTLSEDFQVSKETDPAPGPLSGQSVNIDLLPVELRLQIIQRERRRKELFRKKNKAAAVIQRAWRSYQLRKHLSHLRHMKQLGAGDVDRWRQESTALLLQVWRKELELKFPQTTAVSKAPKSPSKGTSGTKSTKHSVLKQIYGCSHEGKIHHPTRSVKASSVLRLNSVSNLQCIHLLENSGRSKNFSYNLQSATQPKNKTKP
# B3: BRCA1-A complex subunit RAP80 (Homo sapiens), Q96RL1-2 (parent)
# chain: MPRRKKKVKEVSESRNLEKKDVETTSSVSVKRKRRLEDAFIVISDSDGEEPKEENGLQKTKTKQSNRAKCLAKRKIAQMTEEEQFALALKMSEQEAREVNSQEEEEEELLRKAIAESLNSCRPSDASATRSRPLATGPSSQSHQEKTTDSGLTEGIWQLVPPSLFKGSHISQGNEAEEREEPWDHTEKTEEEPVSGSSGSWDQSSQPVFENVNVKSFDRCTGHSAEHTQCGKPQSSQGIVEETSEEGNSVPASQSVAALTSKRSLVLMPESSAEEITVCPETQLSSSETFDLEREVSPGSRDILDGVRIIMADKEVGNKEDAEKEVAISTFSSSNQVSCPLCDQCFPPTKIERHAMYCNGLMEEDTVLTRRQKEAKTKSDSGTAAQTSLDIDKNEKCYLCKSLVPFREYQCHVDSCLQLAKADQGDGPEGSGRACSTVEGKWQQRLKNPKEKGHSEGRLLSFLEQSEHKTSDADIKSSETGAFRVPSPGMEEAGCSREMQSSFTRRDLNESPVKSFVSISEATDCLVDFKKQVTVQPGSRTRTKAGRGRRRKF
# partner: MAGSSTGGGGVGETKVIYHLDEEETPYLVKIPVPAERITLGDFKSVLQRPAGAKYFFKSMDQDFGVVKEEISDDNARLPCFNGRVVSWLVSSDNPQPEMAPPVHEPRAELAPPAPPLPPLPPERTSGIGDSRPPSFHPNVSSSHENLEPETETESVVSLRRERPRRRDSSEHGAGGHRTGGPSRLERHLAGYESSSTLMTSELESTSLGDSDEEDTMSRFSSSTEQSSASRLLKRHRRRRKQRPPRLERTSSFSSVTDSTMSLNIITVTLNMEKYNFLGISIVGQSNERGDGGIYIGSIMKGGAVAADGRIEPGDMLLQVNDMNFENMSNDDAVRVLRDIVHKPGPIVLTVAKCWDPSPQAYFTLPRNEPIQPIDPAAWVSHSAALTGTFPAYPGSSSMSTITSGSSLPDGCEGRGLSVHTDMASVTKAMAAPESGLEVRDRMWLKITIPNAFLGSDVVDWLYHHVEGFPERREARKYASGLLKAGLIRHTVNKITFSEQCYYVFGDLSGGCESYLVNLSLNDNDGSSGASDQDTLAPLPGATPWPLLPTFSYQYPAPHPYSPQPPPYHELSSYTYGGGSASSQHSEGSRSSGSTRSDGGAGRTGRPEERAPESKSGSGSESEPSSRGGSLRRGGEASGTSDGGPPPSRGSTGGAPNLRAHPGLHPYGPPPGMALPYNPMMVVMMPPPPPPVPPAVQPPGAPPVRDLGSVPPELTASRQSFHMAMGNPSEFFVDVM
# B4: Leucine rich adaptor protein 1 (Homo sapiens), Q96LR2 (parent)
# chain: MEGTVESQTPDLRDVEGKVGRKTPEGLLRGLRGECELGTSGALLLPGASSTGHDLGDKIMALKMELAYLRAIDVKILQQLVTLNEGIEAVRWLLEERGTLTSHCSSLTSSQYSLTGGSPGRSRRGSWDSLPDTSTTDRLDSVSIGSFLDTVAPSELDEQGPPGAPRSEMDWAKVIAGGERARTEVDVAATRLGSLRAVWKPPGERLQGGPPESPEDESAKLGFEAHWFWEQCQDDVTFL
# B5: Protein SSX3 (Homo sapiens), Q99909 (parent)
# chain: MNGDDTFARRPTVGAQIPEKIQKAFDDIAKYFSKEEWEKMKVSEKIVYVYMKRKYEAMTKLGFKAILPSFMRNKRVTDFQGNDFDNDPNRGNQVQRPQMTFGRLQGIFPKIMPKKPAEEGNVSKEVPEASGPQNDGKQLCPPGKPTTSEKINMISGPKRGEHAWTHRLRERKQLVIYEEISDPEEDDE
# B6: Zinc finger protein 581 (Homo sapiens), Q9P0T4 (parent)
# chain: MLVLPSPCPQPLAFSSVETMEGPPRRTCRSPEPGPSSSIGSPQASSPPRPNHYLLIDTQGVPYTVLVDEESQREPGASGAPGQKKCYSCPVCSRVFEYMSYLQRHSITHSEVKPFECDICGKAFKRASHLARHHSIHLAGGGRPHGCPLCPRRFRDAGELAQHSRVHSGERPFQCPHCPRRFMEQNTLQKHTRWKHP
# partner: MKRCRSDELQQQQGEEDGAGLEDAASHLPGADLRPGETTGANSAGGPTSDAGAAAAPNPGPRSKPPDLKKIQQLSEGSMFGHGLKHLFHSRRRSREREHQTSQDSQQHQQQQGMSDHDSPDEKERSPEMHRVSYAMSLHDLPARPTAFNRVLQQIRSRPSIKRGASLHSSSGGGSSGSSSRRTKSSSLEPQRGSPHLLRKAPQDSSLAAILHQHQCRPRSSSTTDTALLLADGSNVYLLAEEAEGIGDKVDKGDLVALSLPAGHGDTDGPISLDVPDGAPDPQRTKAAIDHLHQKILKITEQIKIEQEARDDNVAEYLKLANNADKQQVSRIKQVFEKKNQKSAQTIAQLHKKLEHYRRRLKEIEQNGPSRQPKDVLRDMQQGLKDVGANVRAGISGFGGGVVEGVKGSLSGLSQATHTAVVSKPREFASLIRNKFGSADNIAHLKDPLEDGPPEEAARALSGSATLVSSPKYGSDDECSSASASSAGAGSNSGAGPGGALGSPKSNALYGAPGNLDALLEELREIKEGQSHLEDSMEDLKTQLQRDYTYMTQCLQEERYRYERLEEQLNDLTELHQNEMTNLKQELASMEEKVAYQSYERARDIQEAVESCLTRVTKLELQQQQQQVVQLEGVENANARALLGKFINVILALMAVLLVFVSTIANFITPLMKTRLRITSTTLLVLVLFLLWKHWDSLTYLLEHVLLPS
# B7: 1-phosphatidylinositol 4,5-bisphosphate phosphodiesterase delta-4 (Homo sapiens), Q9BRC7 (parent)
# chain: MASLLQDQLTTDQDLLLMQEGMPMRKVRSKSWKKLRYFRLQNDGMTVWHARQARGSAKPSFSISDVETIRNGHDSELLRSLAEELPLEQGFTIVFHGRRSNLDLMANSVEEAQIWMRGLQLLVDLVTSMDHQERLDQWLSDWFQRGDKNQDGKMSFQEVQRLLHLMNVEMDQEYAFSLFQAADTSQSGTLEGEEFVQFYKALTKRAEVQELFESFSADGQKLTLLEFLDFLQEEQKERDCTSELALELIDRYEPSDSGKLRHVLSMDGFLSYLCSKDGDIFNPACLPIYQDMTQPLNHYFICSSHNTYLVGDQLCGQSSVEGYIRALKRGCRCVEVDVWDGPSGEPVVYHGHTLTSRILFKDVVATVAQYAFQTSDYPVILSLETHCSWEQQQTMARHLTEILGEQLLSTTLDGVLPTQLPSPEELRRKILVKGKKLTLEEDLEYEEEEAEPELEESELALESQFETEPEPQEQNLQNKDKKKKSKPILCPALSSLVIYLKSVSFRSFTHSKEHYHFYEISSFSETKAKRLIKEAGNEFVQHNTWQLSRVYPSGLRTDSSNYNPQELWNAGCQMVAMNMQTAGLEMDICDGHFRQNGGCGYVLKPDFLRDIQSSFHPEKPISPFKAQTLLIQVISGQQLPKVDKTKEGSIVDPLVKVQIFGVRLDTARQETNYVENNGFNPYWGQTLCFRVLVPELAMLRFVVMDYDWKSRNDFIGQYTLPWTCMQQGYRHIHLLSKDGISLRPASIFVYICIQEGLEGDES
# partner: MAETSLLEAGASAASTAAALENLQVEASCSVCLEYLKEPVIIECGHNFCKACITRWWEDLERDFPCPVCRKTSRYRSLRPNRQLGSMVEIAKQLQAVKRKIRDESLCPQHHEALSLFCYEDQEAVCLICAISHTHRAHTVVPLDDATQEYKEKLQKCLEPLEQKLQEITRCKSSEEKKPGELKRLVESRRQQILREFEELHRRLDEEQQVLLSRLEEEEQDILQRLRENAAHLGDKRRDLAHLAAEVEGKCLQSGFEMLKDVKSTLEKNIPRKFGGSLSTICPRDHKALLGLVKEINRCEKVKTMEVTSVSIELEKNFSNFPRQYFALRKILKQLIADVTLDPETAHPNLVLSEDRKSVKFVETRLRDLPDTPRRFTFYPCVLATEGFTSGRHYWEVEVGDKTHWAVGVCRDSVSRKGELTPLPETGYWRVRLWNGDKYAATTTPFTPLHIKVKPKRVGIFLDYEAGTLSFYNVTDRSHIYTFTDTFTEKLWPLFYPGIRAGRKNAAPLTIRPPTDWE
# B8: Microtubule-associated protein RP/EB family member 1 (Homo sapiens), Q15691 (parent)
# chain: MAVNVYSTSVTSDNLSRHDMLAWINESLQLNLTKIEQLCSGAAYCQFMDMLFPGSIALKKVKFQAKLEHEYIQNFKILQAGFKRMGVDKIIPVDKLVKGKFQDNFEFVQWFKKFFDANYDGKDYDPVAARQGQETAVAPSLVAPALNKPKKPLTSSSAAPQRPISTQRTAAAPKAGPGVVRKNPGVGNGDDEAAELMQQVNVLKLTVEDLEKERDFYFGKLRNIELICQENEGENDPVLQRIVDILYATDEGFVIPDEGGPQEEQEEY
# Variants of: B1
# Conditions: with pls1_human PLSCR1, O15162
# pls1_human PLSCR1, O15162, sequence (O15162 whole entry): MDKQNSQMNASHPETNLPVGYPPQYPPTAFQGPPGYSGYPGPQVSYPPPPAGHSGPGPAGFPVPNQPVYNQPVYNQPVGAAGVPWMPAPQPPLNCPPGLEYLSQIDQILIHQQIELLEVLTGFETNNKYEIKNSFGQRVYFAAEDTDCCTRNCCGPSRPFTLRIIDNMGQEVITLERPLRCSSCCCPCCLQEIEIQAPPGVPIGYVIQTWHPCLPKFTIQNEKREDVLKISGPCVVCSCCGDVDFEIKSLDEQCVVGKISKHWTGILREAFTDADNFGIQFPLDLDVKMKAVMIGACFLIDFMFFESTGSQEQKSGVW
row,Variant,effect of a mutation on the interaction
1,A57T,with no effect

# Variants of: B2
# Conditions: with invs_human INVS
row,Variant,effect of a mutation on the interaction
1,P41A,with no effect

# Variants of: B3
# Conditions: with dvl2_human DVL2, O14641
row,Variant,effect of a mutation on the interaction
1,G48E,with no effect

# Variants of: B4
# Conditions: with tpm3_human TPM3, P06753
# tpm3_human TPM3, P06753, sequence (P06753 whole entry): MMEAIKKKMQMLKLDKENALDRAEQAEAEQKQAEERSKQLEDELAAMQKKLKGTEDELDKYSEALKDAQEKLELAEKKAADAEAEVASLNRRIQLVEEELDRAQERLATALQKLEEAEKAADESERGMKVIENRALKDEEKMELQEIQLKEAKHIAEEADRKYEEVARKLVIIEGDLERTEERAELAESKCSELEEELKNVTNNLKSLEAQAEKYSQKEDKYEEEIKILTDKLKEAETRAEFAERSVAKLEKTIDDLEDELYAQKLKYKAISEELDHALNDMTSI
row,Variant,effect of a mutation on the interaction
1,Q207R,with no effect
2,M60L,with no effect

# Variants of: B5
# Conditions: with cep63_human CEP63, Q96MT8
# cep63_human CEP63, Q96MT8, sequence (Q96MT8 whole entry): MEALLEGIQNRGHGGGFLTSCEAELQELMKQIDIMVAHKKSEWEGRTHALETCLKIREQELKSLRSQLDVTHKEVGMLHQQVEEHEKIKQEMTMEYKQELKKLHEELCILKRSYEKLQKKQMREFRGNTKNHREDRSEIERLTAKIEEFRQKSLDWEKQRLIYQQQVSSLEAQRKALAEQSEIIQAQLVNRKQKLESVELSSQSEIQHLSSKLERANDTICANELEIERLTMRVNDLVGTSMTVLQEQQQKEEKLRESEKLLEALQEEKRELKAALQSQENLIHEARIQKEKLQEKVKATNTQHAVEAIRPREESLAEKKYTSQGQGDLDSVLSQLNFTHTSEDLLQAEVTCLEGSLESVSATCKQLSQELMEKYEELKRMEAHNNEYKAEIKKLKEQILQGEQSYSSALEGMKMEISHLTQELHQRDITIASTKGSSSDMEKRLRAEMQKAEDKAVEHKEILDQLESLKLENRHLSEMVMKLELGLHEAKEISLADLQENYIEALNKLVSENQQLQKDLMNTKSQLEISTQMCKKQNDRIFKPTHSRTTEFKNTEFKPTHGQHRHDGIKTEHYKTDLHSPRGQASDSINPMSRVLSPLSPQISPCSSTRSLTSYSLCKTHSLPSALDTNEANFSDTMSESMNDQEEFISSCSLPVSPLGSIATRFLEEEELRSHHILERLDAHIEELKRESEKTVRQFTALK
row,Variant,effect of a mutation on the interaction
1,T77A,with no effect
2,R159S,with no effect

# Variants of: B6
# Conditions: with tmcc2_human TMCC2, O75069
row,Variant,effect of a mutation on the interaction
1,E32A,with no effect
2,R143W,with no effect

# Variants of: B7
# Conditions: with tri39_human TRIM39, Q9HCM9
row,Variant,effect of a mutation on the interaction
1,N475K,with no effect

# Variants of: B8
# Conditions: with mare3_human MAPRE3, Q9UPY8
# mare3_human MAPRE3, Q9UPY8, sequence (Q9UPY8 whole entry): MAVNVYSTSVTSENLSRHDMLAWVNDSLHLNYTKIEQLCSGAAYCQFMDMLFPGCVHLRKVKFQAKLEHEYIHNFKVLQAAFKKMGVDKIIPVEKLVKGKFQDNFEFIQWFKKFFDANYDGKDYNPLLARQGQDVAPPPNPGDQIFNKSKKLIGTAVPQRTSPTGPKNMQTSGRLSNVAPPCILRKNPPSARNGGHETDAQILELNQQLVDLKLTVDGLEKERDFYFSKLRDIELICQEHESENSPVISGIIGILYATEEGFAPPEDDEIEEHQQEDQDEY
row,Variant,effect of a mutation on the interaction
1,I56V,with no effect
